This assay concerns the target T1, ATAD3A-HA, in vitro translated (UniProt Q9NVI7-2 1-586).
T1 construct: ATAD3A (ATPase family AAA domain-containing 3A); the truncation map of the ATAD3A-HA plasmids ends at residue 586, which fits the 586-residue isoform; read as C-terminal; also called ATAD3A-HA (pcDNA3.1 vector); source: in vitro translated (TnT quick coupled transcription/translation, Promega), then purified
T1 sequence (looked up): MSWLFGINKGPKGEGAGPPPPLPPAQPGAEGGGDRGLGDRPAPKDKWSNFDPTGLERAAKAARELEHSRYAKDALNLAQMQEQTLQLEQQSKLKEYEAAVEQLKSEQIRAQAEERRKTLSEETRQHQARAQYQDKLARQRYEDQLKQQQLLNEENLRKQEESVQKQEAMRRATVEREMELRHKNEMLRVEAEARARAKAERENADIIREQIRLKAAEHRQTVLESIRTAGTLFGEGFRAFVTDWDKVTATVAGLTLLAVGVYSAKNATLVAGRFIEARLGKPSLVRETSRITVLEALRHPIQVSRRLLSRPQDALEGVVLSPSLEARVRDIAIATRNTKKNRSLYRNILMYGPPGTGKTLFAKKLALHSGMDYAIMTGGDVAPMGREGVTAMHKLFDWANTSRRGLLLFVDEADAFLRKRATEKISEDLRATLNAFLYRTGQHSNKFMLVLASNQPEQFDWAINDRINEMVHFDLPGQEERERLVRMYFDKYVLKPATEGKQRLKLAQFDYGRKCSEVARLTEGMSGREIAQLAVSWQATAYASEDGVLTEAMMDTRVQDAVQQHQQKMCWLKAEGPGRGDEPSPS
Description: co-IP; P4HA2-FLAG and ATAD3A-HA made by TnT quick coupled transcription/translation (30 °C, 90 min), purified, then co-IP. To be noted: both partners purified.

B1: P4HA2-FLAG, in vitro translated (natural protein, UniProt O15460 1-535, looked up)
chain: MKLWVSALLMAWFGVLSCVQAEFFTSIGHMTDLIYAEKELVQSLKEYILVEEAKLSKIKSWANKMEALTSKSAADAEGYLAHPVNAYKLVKRLNTDWPALEDLVLQDSAAGFIANLSVQRQFFPTDEDEIGAAKALMRLQDTYRLDPGTISRGELPGTKYQAMLSVDDCFGMGRSAYNEGDYYHTVLWMEQVLKQLDAGEEATTTKSQVLDYLSYAVFQLGDLHRALELTRRLLSLDPSHERAGGNLRYFEQLLEEEREKTLTNQTEAELATPEGIYERPVDYLPERDVYESLCRGEGVKLTPRRQKRLFCRYHHGNRAPQLLIAPFKEEDEWDSPHIVRYYDVMSDEEIERIKEIAKPKLARATVRDPKTGVLTVASYRVSKSSWLEEDDDPVVARVNRRMQHITGLTVKTAELLQVANYGVGGQYEPHFDFSRNDERDTFKHLGTGNRVATFLNYMSDVEAGGATVFPDLGAAIWPKKGTAVFWYNLLRSGEGDYRTRHAACPVLVGCKWVSNKWFHERGQEFLRPCGSTEVD
notes: P4HA2 (Prolyl-4-Hydroxylase Alpha Subunit 2); read as C-terminal; also called P4HA2-FLAG (pcDNA3.1 vector); source: in vitro translated (TnT quick coupled transcription/translation, Promega), then purified
B1: the binding result is “binds”.

Source of the values: article PMC12501296, “P4HA2 interacted with ATAD3A to modulate PINK1/parkin-dependent mitophagy and ^125I brachytherapy sensitization in esophageal carcinoma” (Cell Death & Disease, 2025).
